B1: Twister Ribozyme (parent)
chain: AACACUGCCAAUGCCGGUCCCAAGCCCGGAUAAAAGUGGAGGGGGCGG

Variants of: B1
Assay: self-cleavage, relative activity (ratio to wild type); higher = more cleavage; co-transcriptional

First: AACACUGCCAAUCCCGGUCCCAAGCCCGGAUCAAAGUGGAGGGGGCGG
Second: AACACUGCCAAUCCCGGUCCCAAGCCCGGAUAAAAUUGGAGGGGGCGG
The self-cleavage of the first is higher: 0.159 for the first, 0.0844 for the second.

Going from AACACUGCCAAUACCGGUCCCAAGCUCGGAUAAAAGUGGAGGGGGCGG to AACACUGCCAAGGCCGGUCCCAAGCCCGGAUAAAAGUCGAGGGGGCGG, the self-cleavage rises from 0.142 to 0.881.

First: AACACUGCCAAGGCCGGUCCCAAGCCCGGAUAAAAGUUGAGGGGGCGG
Second: AACACUGCCAAUCCCGGUCCCAAGCCCGGAUAAAAGUAGAGGGGGCGG
The self-cleavage of the first is higher: 0.76 for the first, 0.219 for the second.

First: AACACUGCCAAUCCCGGUCCCAAGCCCGGAUAAAAGUUGAGGGGGCGG
Second: AACACUGCCAAUACCGGUCCCAAGCCCGGAUAAAAGUUGAGGGGGCGG
The self-cleavage of the first is lower: 0.158 for the first, 0.463 for the second.

Going from AACACUGCCAAUCCUGGUCCCAAGCCCGGAUAAAAGUGGAGGGGGCGG to AACACUGCCAAUACCGGUCCCAAGCCCGGAUAAAAGUGGAGGCGGCGG, the self-cleavage rises from 0.0748 to 0.167.

Going from AACACUGCCAAUACCGGUCCCAAGCCCGGAUAAAAGUGGAGGUGGCGG to AACACUGCCAAUACCGGUCCCAUGCCCGGAUAAAAGUGGAGGGGGCGG, the self-cleavage falls from 0.182 to 0.0933.

Compared with AACACUGCCAAUACCGGUCCCAGGCCCGGAUAAAAGUGGAGGGGGCGG, AACACUGCCAAUACCGGUCCCAAGCCCGGAUAAAAGUGGAGGGGGCUG is higher in self-cleavage: 0.0799 for the first, 0.446 for the second.

Going from AACACUGCCAAUACCGGUCCCAAGCCCGGAUAAAACUGGAGGGGGCGG to AACACUGCCAAUCCCGGUCCCAAGCACGGAUAAAAGUGGAGGGGGCGG, the self-cleavage falls from 0.118 to 0.0939.

First: AACACUGCCAAUCCCGGUCCCAAGCUCGGAUAAAAGUGGAGGGGGCGG
Second: AACACUGCCAAUCUCGGUCCCAAGCCCGGAUAAAAGUGGAGGGGGCGG
The self-cleavage of the first is lower: 0.0884 for the first, 0.408 for the second.

Going from AACACUGCCAAUCGCGGUCCCAAGCCCGGAUAAAAGUGGAGGGGGCGG to AACACUGCCAAUCCCGGUCCCGAGCCCGGAUAAAAGUGGAGGGGGCGG, the self-cleavage falls from 0.334 to 0.103.

Going from AACACUGCCAAUCCCGGUCCCUAGCCCGGAUAAAAGUGGAGGGGGCGG to AACACUGCCAAUCCCGUUCCCAAGCCCGGAUAAAAGUGGAGGGGGCGG, the self-cleavage falls from 0.16 to 0.114.

First: AACACUGCCAAUCCCGCUCCCAAGCCCGGAUAAAAGUGGAGGGGGCGG
Second: AACACUGCCAAUACCGGUCCCAAGCCCGGAUAUAAGUGGAGGGGGCGG
The self-cleavage of the first is lower: 0.0805 for the first, 1.01 for the second.

First: AACACUGCCAAGGCCGGUCCCAAGCCCGGAUAAAAGUGGAGGGGACGG
Second: AACACUGCCAAUACCGGUCCCAAGCCCGGAUAAAAGUGGAGGGGGCGA
The self-cleavage of the first is lower: 0.583 for the first, 0.659 for the second.

First: AACACUGCCAAUCCCGGUCCCAAGCCAGGAUAAAAGUGGAGGGGGCGG
Second: AACACUGCCAAUCCCGGUCCCAAGCCUGGAUAAAAGUGGAGGGGGCGG
The self-cleavage of the first is lower: 0.0712 for the first, 0.0915 for the second.

Going from AACACUGCCAAUCCCGGUCCCAAGACCGGAUAAAAGUGGAGGGGGCGG to AACACUGCCAAGGCCGGGCCCAAGCCCGGAUAAAAGUGGAGGGGGCGG, the self-cleavage falls from 0.0747 to 0.0252.

Compared with AACACUGCCAAUACCGGUCCCAAGCCCAGAUAAAAGUGGAGGGGGCGG, AACACUGCCAAUACCGGUCCCAAGCCCUGAUAAAAGUGGAGGGGGCGG is higher in self-cleavage: 0.579 for the first, 0.623 for the second.

Going from AACACUGCCAAUACCGGUCCCAAGCCCCGAUAAAAGUGGAGGGGGCGG to AACACUGCCAAUACAGGUCCCAAGCCCGGAUAAAAGUGGAGGGGGCGG, the self-cleavage falls from 0.581 to 0.46.

First: AACACUGCCAAUACCGGUCCCAAGCCCGGAUAAAAGUGGAUGGGGCGG
Second: AACACUGCCAAUACCGGUCCCAAGCCCGGAUAAAAGUGGACGGGGCGG
The self-cleavage of the first is lower: 0.131 for the first, 0.17 for the second.

First: AACACUGCCAAUACCGGUCCCAAGCCCGGAUAAAAGUGGAAGGGGCGG
Second: AACACUGCCAAUCCCGGUCCCAAGCCCGGAUACAAGUGGAGGGGGCGG
The self-cleavage of the first is lower: 0.157 for the first, 0.236 for the second.

First: AACACUGCCAAGGCCGGUCCCAAGCCCGGAUAAAAGUGGAGGGGGCGC
Second: AACACUGCCAAGGCCGGUCCCAAGCCCGGAUAAAAGUGGAGGGGGCGA
The self-cleavage of the first is higher: 0.929 for the first, 0.593 for the second.

Going from AACACUGCCAAUCCCAGUCCCAAGCCCGGAUAAAAGUGGAGGGGGCGG to AACACUGCCAAUCCCCGUCCCAAGCCCGGAUAAAAGUGGAGGGGGCGG, the self-cleavage falls from 0.129 to 0.044.

First: AACACUGCCAAUCCCUGUCCCAAGCCCGGAUAAAAGUGGAGGGGGCGG
Second: AACACUGCCAAUCCCGGUCCCAAACCCGGAUAAAAGUGGAGGGGGCGG
The self-cleavage of the first is higher: 0.132 for the first, 0.0986 for the second.

First: AACACUGCCAAUCCCGGUCCCAACCCCGGAUAAAAGUGGAGGGGGCGG
Second: AACACUGCCAAUACCGGUCCCGAGCCCGGAUAAAAGUGGAGGGGGCGG
The self-cleavage of the first is lower: 0.0811 for the first, 0.107 for the second.

Compared with AACACUGCCAAUACCGGUCCCAAGCCCGGAUAAAAGUGGAGGGGGAGG, AACACUGCCAAUACCGGUCCCAAGCCCGGAUAAAAGUGGAGGGGGGGG is higher in self-cleavage: 0.715 for the first, 0.848 for the second.

Compared with AACACUGCCAAUCCCGGUCCCAGGCCCGGAUAAAAGUGGAGGGGGCGG, AACACUGCCAAUCCCGGUCCCACGCCCGGAUAAAAGUGGAGGGGGCGG is lower in self-cleavage: 0.139 for the first, 0.0801 for the second.

Going from AACACUGCCAAUCCCGGUACCAAGCCCGGAUAAAAGUGGAGGGGGCGG to AACACUGCCAAUACCGGUCUCAAGCCCGGAUAAAAGUGGAGGGGGCGG, the self-cleavage rises from 0.0574 to 0.262.

First: AACACUGCCAAUACCGGUCGCAAGCCCGGAUAAAAGUGGAGGGGGCGG
Second: AACACUGCCAAUACCGGUCACAAGCCCGGAUAAAAGUGGAGGGGGCGG
The self-cleavage of the first is higher: 0.115 for the first, 0.09 for the second.

Reference: the RNAGym collection of RNA variant scans (doi:10.7554/elife.80360)
